Data set [1] deals with pig liver esterase. Description: HPLC-MS analysis of conjugate cleavage, model system with pig liver esterase. In kind it is in vitro ADME. Conditions: pig liver esterase 5 mg mL^−1; conjugate 150 µM; 30 °C; 0, 30, 120 min. Here is the method:
(§1) Conjugates 24a–d, containing the TML system, were tested for susceptibility to enzymatic cleavage in the model system with pig liver esterase and in cell-free extract prepared from C. albicans cells. Conjugate 35 containing the o-dithiobenzylcarbamoyl linker was tested in the model system with glutathione and in C. albicans cell-free extract.
(§2) Analysis of cleavage of the conjugates was performed in two experimental systems: (A) model system, in the presence of pig liver esterase or glutathione, reduced; (B) in C. albicans cell-free extract.
Mixtures containing a given conjugate at the initial concentration of 150 µM and pig liver esterase, 5 mg mL^−1 or 10 mM glutathione, reduced, in a total volume of 200 μL were incubated at 30 °C. Samples of 50 μL were collected at zero time, after 30 min, and after 120 min and subjected to HPLC-MS analysis.
(§3) The HPLC-MS system consisted of a liquid chromatograph, a degasser, a binary pomp, an auto-sampler, and a column oven, which was combined with an MS detector with an electrospray source (AJS ESI) and quadrupole analyzer (1260 Infinity II and 6470 Triple Quad LC/MS, Agilent Technologies, Waldbronn, Germany). The ChemStation software was used to control the LC-MS system and for data processing.
(§4) Chromatographic separations were performed on an Eclipse XDB-C18 column (150 mm × 4.6 mm, 5 μm). For the separation, a gradient of mobile phase A (H2O + 0.01% HCOOH) and mobile phase B (100% methanol) was used. The gradient profile was set as follows: 0 min—95% effluent A, 8 min—70% effluent A, 11 min—50% effluent A, 12 min—95% effluent A, 17 min—95% effluent A. The flow rate was 1 mL min^−1, the column temperature was 25 °C, and the injection volume was 20 μL.
(§5) The electrospray source operated in a negative mode. The data were collected in a MS scanning mode (MS2 SCAN) with the range 150–700 (m/z).

Data set [2] relates to C. albicans cell-free extract. In kind it is in vitro ADME, Candida albicans. Conditions: conjugate 150 µM, 30 °C, 0, 30, 120 min. Here is the method:
as §1
C. albicans cells were harvested from the culture in YPD medium in the logarithmic phase of growth and washed with PBS, pH 7.4. Then, cells were suspended in a minimal amount of PBS to an optical density OD660 ≈ 1.5. A sample of 1.5 mL of the cell suspension was put into the Lysing Matrix D, 2 mL tubes containing 1.4 mm ceramic spheres (MP Biomedicals). The tubes were vortexed 5 times for 2 min intervals, with 2 min breaks for cooling in the ice/water bath. Finally, the mixtures were centrifuged (10,000× g, 4 °C, 20 min), and the supernatant was pushed through the syringe filter, 0.22 μm pore size, to remove unbroken cells. The thus-obtained cell-free extract was kept at 4 °C and used no later than 5 h after preparation.
as §2
A given conjugate was dissolved in 4 mL of C. albicans cell-free extract to the initial concentration of 150 µM. Mixtures were incubated at 30 °C. Samples of 1 mL were collected at zero time, after 30 min, and after 120 min. The collected samples were immediately de-proteinized by centrifugation (4 °C, 5000× g, 10 min) in Amicon® Ultra-4 Centrifugal Filter Units, 3 kDa cutoff limit. Samples of 50 μL were collected from the filtrates and subjected to HPLC-MS analysis.
as §3, §4, §5

Data set [3] relates to Candida spp. Description: Antifungal in vitro activity, summary statements over the Candida strains tested. The format is cell-based. Conditions: RPMI-1640 medium. Here is the method:
The antifungal in vitro activity of conjugates 24a–d and 35 was determined by the serial two-fold dilution method, using the 96-well microtiter plates, in two growth media, RPMI-1640 and YNB-AS, against seven yeast species from the Candida genus. The MIC50 and MIC90 values, i.e., concentrations at which cell growth was inhibited in 50% and 90%, respectively, were measured and compared to those of the intact cispentacin. The concentration values presented in Table 1 and Table 2 are expressed in mM units to allow the comparison of the compounds’ effectiveness at the molecular level. For data expressed in μg mL^−1 units, such comparison is not possible, since the molecular masses of conjugates (≈1755–2114 D range) are 14–16-fold higher than that of cispentacin (128.3 D).
Susceptibility testing was performed in two growth media: (a) RPMI-1640 w/o sodium bicarbonate, with L-glutamine + 2% glucose + 3.45% MOPS, pH adjusted to 7.0; (b) YNB-AS—Yeast Nitrogen Base w/o amino acids (contains ammonium sulfate 5 g L^−1) + 2% glucose. The in vitro growth inhibitory activity of antifungals was quantified by determination of MIC50 and MIC90 values by the serial two-fold dilution method, using the 96-well microtiter plates. Serial dilutions of cispentacin and its conjugates were prepared in the 4–0.015 mM range.
Conditions of the RPMI-1640-based assay were the same as outlined in the CLSI recommendations except for the end-point readout that was done by spectrophotometric determination of cell density at 660 nm. Turbidity in individual wells was measured with a microplate reader (Victor^3; Perkin Elmer). The 96-well microtiter plates were also used for the determination of in vitro growth inhibitory activity in YNB-AS medium. Individual wells were inoculated with 5 × 10^3 Candida cells mL^−1 from the overnight culture in YPD medium. The plates were incubated at 37 °C for 24 h, and then, turbidity was measured with a microplate reader at 660 nm, as described above for the RPMI-1640-based assay.
Values of MIC50 and MIC90 were read from the graphs of A660 vs. drug concentration and corresponded to the interpolated values of drug concentration at which A660 was 50% or 10% of that measured for the drug-free control.

Here are results for 2 compounds from article PMC8465315, “Molecular Umbrella as a Nanocarrier for Antifungals” (Molecules, 2021).

With `Cc1cc(C)c(C(C)(C)CC(=O)N[C@H]2CCC[C@H]2C(=O)O)c(OC(=O)CCC(=O)N(CCCCNC(=O)CC[C@@H](C)[C@H]2CC[C@H]3[C@@H]4CC[C@@H]5C[C@H](OS(=O)(=O)O)CC[C@]5(C)[C@H]4C[C@H](OS(=O)(=O)O)[C@]23C)CCCNC(=O)CC[C@@H](C)[C@H]2CC[C@H]3[C@@H]4CC[C@@H]5C[C@H](OS(=O)(=O)O)CC[C@]5(C)[C@H]4C[C@H](OS(=O)(=O)O)[C@]23C)c1` [24a], the “cleavage / release of cispentacin (HPLC-MS)” value in data set [1] is recorded as “resistant to enzymatic cleavage”. Further, the “cleavage / release of cispentacin or its derivative (HPLC-MS)” value in data set [2] is given as “Neither cispentacin nor the m/z 145.1/145.2 compound was found”. Further, the antifungal activity entry in data set [3] was “devoid of antifungal activity”.

`Cc1cc(C)c(C(C)(C)CC(=O)N[C@H]2CCC[C@H]2C(=O)O)c(OC(=O)CCC(=O)N(CCCCNC(=O)CC[C@@H](C)[C@H]2CC[C@H]3[C@@H]4[C@H](OS(=O)(=O)O)C[C@@H]5C[C@H](OS(=O)(=O)O)CC[C@]5(C)[C@H]4C[C@H](OS(=O)(=O)O)[C@]23C)CCCNC(=O)CC[C@@H](C)[C@H]2CC[C@H]3[C@@H]4[C@H](OS(=O)(=O)O)C[C@@H]5C[C@H](OS(=O)(=O)O)CC[C@]5(C)[C@H]4C[C@H](OS(=O)(=O)O)[C@]23C)c1` [24b]: the “cleavage / release of cispentacin (HPLC-MS)” value in data set [1] is “resistant to enzymatic cleavage”. For the same compound, the “cleavage / release of cispentacin or its derivative (HPLC-MS)” value in data set [2] is recorded as “Neither cispentacin nor the m/z 145.1/145.2 compound was found”. Besides, the antifungal activity entry in data set [3] is given as “devoid of antifungal activity”.
